This note sets out measurements from PMC4118869 (PLoS ONE, 2014).

For test [1], the target named is hemagglutinin of A/Brisbane/10/2007 (H3N2), in the influenza virus antigen standard (Influenza A virus A/Brisbane/10/2007 …, UniProt A8W8K8, strain). The test can be described thus: ELISA. The conditions noted are these: one partner purified.
Test [2] deals with recombinant HA1 domain (D18-R344), A/California/06/2009 (H1N1)pdm09 (Influenza A virus A/California/06/2009 …, UniProt C3W5S1, strain). The test can be described thus: SPR. The note with it: both partners purified.
For test [3], the target named is T1, recombinant H7-HA, A/Netherlands/219/2003 (H7N7) (Influenza A virus …, UniProt Q6VMK1).
T1 construct: source: bought: Protein Sciences
The test can be described thus: SPR; data not shown: sdAbs on immobilised recombinant H3-HA and H7-HA. The note with it: both partners purified. A general note: Surface plasmon resonance follows binding to a sensor surface in real time, without labels.

Test [4] deals with T2, recombinant H3-HA, A/Brisbane/10/2007 (H3N2) (Influenza A virus A/Brisbane/10/2007 …, UniProt A8W8K8, strain).
T2 construct: source: bought: Protein Sciences
Described as above. The note with it: both partners purified.

Test [5] addresses phage displayed HA gene fragment P66-I282 (Influenza A virus A/California/07/2009 …, UniProt C3W5X2). The test can be described thus: ELISA. The note with it: both partners purified. For orientation: An ELISA detects its analyte on a solid surface through an enzyme-linked reagent.
Test [6] addresses hemagglutinin of A/California/07/2009 (H1N1)pdm09, in the influenza virus antigen standard (Influenza A virus A/California/07/2009 …, UniProt C3W5X2, strain). In words: ELISA. The conditions noted are these: one partner purified.
Test [7] has as its target phage displayed HA gene fragment L193-K225 (Influenza A virus A/California/07/2009 …, UniProt C3W5X2). In words: ELISA. The conditions noted are these: both partners purified.
Test [8] deals with phage displayed HA gene fragment D363-G478 (Influenza A virus A/California/07/2009 …, UniProt C3W5X2). In words: ELISA. The conditions noted are these: both partners purified.
Test [9] has as its target recombinant H1-HA (D18-I530), A/California/06/2009 (H1N1)pdm09 (Influenza A virus A/California/06/2009 …, UniProt C3W5S1, strain). In words: SPR. The note with it: both partners purified.
For test [10], the target named is recombinant H9-HA, A/HongKong/1073/99 (H9N2) (Influenza A virus A/Hong Kong/1073/99 …, UniProt Q9ICY5, strain). In words: SPR. The conditions noted are these: both partners purified.
Test [11] addresses recombinant H5-HA, A/Vietnam/1203/2004 (H5N1) (Influenza A virus A/Vietnam/1203/2004 …, UniProt Q5EP31, strain). The test can be described thus: SPR. The conditions noted are these: both partners purified.
For test [12], the target named is T3, recombinant H2-HA, A/Japan/305/57 (H2N2) (Influenza A virus A/Japan/305/1957 …, UniProt P03451, strain).
T3 construct: source: bought: E-Enzymes (Protein Sciences in the SPR methods)
The test can be described thus: SPR. The note with it: both partners purified.

The term Kd denotes the free concentration of one partner at which half of the binding sites on the other are occupied at equilibrium, for simple one-to-one binding. The term koff denotes the first-order rate constant of dissociation. Usually kon stands for a measure of how fast the partners come together.

B1: R1a-G6 (VHH)
VHH: QVQLVESGGGLVQSGGSLRLSCAASGSMSRIITMGWYRQAPGMERELVAVIGNNDNTVYGDSVQGRFTVSRDNAKNTAYLQMNSLNAEDTAMYYCKISTLTPPHEYWGQGTQVTVSS
notes: source: E. coli WK6 periplasm, purified (Talon IMAC, Superdex 75 SEC)
In the case of B1, the binding result in test [1] is “no binding”; in test [3], “no binding”; in test [4] it was “no binding”; in [5], “binds”; in [6] it was “binds”; in test [7], “no binding”. Besides, the binding result in test [8], in test [10], in [11] and in [12] was “no binding” in each case. Moreover, the Kd is 4.62 nM in test [2] and 4.83 nM in [9]. For the same molecule, the off-rate (koff) in [9] was found to be 0.000355 s⁻¹. Also, the kon in test [9] stood at 73800 M⁻¹ s⁻¹.

B2: R1a-E6 (VHH)
VHH: QVQLVESGGGLVQPGGSLRLSCAASGFTLGAYAIAWFRQAPGKEREGVSCISPSDSFTEYGDSVKGRFTVSRDNAKNTVYLQMNSLQPEDTAVYYCAADPVCTAGWYRPSRFDLWGQGTQVTVSS
notes: as for B1
As to B2, the binding result in test [1] is listed as “no binding”; in test [3], “no binding”; in [4] it was “no binding”; in test [5], “binds”; in test [6], “binds”; in [7] it was “no binding”. Moreover, the binding result in [8], in test [10], in test [11] and in test [12] was “no binding” in each case. For the same molecule, the values for the dissociation constant Kd in test [2] and in test [9] were 36 nM and 9.97 nM, respectively. The koff in test [9] was 0.000151 s⁻¹. Also, the association rate constant (kon) in [9] stood at 15100 M⁻¹ s⁻¹.

B3: R2a-F9 (VHH)
VHH: QVQLVESGGGLVQPGGSLRLSCSASGSISSIVTMGWYRQAPGKERELVAVIGNYGNTNYADSVKGRFTVSRDNAKNTVYLQMNSLNVEDTAMYVCKFSSTVAPHEYWGQGTQVTVSS
notes: as for B1
On to B3, for which the binding result is listed as “no binding” in test [1]; “no binding” in [3]; “no binding” in [4]; “binds” in test [5]; “binds” in test [6]; “no binding” in test [7]. Besides, the binding result in test [8], in test [10], in test [11] and in test [12] was “no binding” throughout. Besides, the Kd in test [2] and in test [9] was 78.8 nM each time. Besides, in test [9], the koff worked out at 0.065 s⁻¹. Also, the on-rate constant (kon) in test [9] was found to be 825000 M⁻¹ s⁻¹.
